The results in this text go back to the supplement of paper PMC9170038.

The test system of this data set is MS2 coat protein. Kind of data set: apparent KD of MS2 coat protein; designed switch direction (-1 OFF switch, 1 ON switch): -1; higher = weaker reporter binding. The procedure, abridged:
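For each design, the apparent KD is the median over clusters of curves fitted to normalised cluster fluorescence. Clusters held RNA switches with common flanks, transcribed on Illumina chips by stalled E. coli RNA polymerase. These were titrated with SNAP-549-labelled MS2 coat protein, doubling from 0.7 or 1.5 nM to 3 µM, without input, with 200 uM small-molecule ligand, or with an oligonucleotide input.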

Where [1] appears, read: input ligand: microRNA oligo, concentration not stated.
[2] abbreviates: Eterna round: R95, input ligand: FMN 200 uM.
The mark [3] stands for this setting: Eterna round: R95, input ligand: microRNA oligo, concentration not stated.
[4] abbreviates: Eterna round: R95, input ligand: none.

On to “AGAAACUCAAGAGGAUAUCACAUGAGGAUCACCCAUGUAUAGCGCGCUAUGCUAGUCCUCGUAUUUGAGAAGGUUUGAUAAAUG [Mat - Exclusion NG 2 - Mod of JL - D78] (Eterna round: R96, puzzle: Exclusion NG 2)”, for which the “apparent KD of MS2 coat protein” value (input ligand: FMN 200 uM) worked out at 0.0162 µM, the “apparent KD of MS2 coat protein” value under setting [1] came to 0.0142 µM and the “apparent KD of MS2 coat protein” value (input ligand: none) was found to be 0.0169 µM.
For “CAUGGAACGUAGGAUAUCUCGCAGCCCGACUGCAGAGAAGGACGUACAUGAGGAUCACCCAUGUAUGAUCCAAA [Vexeoren] (puzzle: Exclusion 6)”, the “apparent KD of MS2 coat protein” value by setting is: under setting [2], 0.0292 µM; under setting [3], 0.0181 µM; under setting [4], 0.0233 µM.
As for “AAUAAUAAGGAGGAUAUCGUAUCGGAAACGAUACGAGAAGGCCUAACAUGAGGAUCACCCAUGUUCCUUAAUAA [Fiskers Ex 6 - 4] (puzzle: Exclusion 6)”, the “apparent KD of MS2 coat protein” value amounted to 0.0333 µM under setting [2], 0.022 µM under setting [3] and 0.0182 µM under setting [4].
Regarding “ACAUGAGGAUCACCCAUGUAAUGAUGGGUACUAUAUUAUUCGUAGGAUAUCGUUGUUAGUUUGUUCGAGAAGGACGUUUGCCUU [JR_ExcNG3_Sub055] (Eterna round: R96, puzzle: Exclusion NG 3)”, under setting [1], the “apparent KD of MS2 coat protein” value turned out to be 0.824 µM.
As for “UAGAUGGGAGGAUAUACGUAGAUACAGAUUCGUGUAGUGCUACAUGAGGAUCACCCAUGUAGAAGGCCCGUCUU [JL-ex2-2.23 Mayanne mod] (puzzle: Exclusion 2)”, the “apparent KD of MS2 coat protein” value under setting [3] was 0.0131 µM.
On the same count and under the same terms, under “GGUGCGUUUGUGAGGAUAUGCUGGUCCUUGGAUCAGCAGAAGGCACAUGAGGAUCACCCAUGUGGUGUCGUACC [salish99_Bmod_Ex4_030] (puzzle: Brourd's mod of Exclusion 4)” stands 0.273 µM.
In the case of “GCCGGAUUUGUGAGGAUAUGCCUAUGGAUACAUAGGCAGAAGGCACAUGAGGAUCACCCAUGUUCCUCACCGGC [JL-BMX4-4.24 Eli mod] (Eterna round: R97, puzzle: Brourd's mod of Exclusion 4)”, the “apparent KD of MS2 coat protein” value is, setting by setting: (input ligand: FMN 200 uM) 0.232 µM; (input ligand: none) 0.0298 µM.
As to “GAUUGACAUGAGGAUCACCCAUGUGAGGAUAUCGGCUGGACCGUGUUGGCUUCCGUCUCGAGAAGGCGCAUAGG [Exclusion 1 V43] (Eterna round: R96, puzzle: Exclusion 1)”, the “apparent KD of MS2 coat protein” value is, setting by setting: (input ligand: FMN 200 uM) 0.0435 µM; under setting [1], 0.0239 µM; (input ligand: none) 0.0268 µM.
Regarding “UUAAUUAAUGUCAGGAUAUCUAGAGCCUCGGCUCUAGAGAAGGGACAUGAGGAUCACCCAUGUCACUCUUAAUU [BmEx4/3-C2] (Eterna round: R97, puzzle: Brourd's mod of Exclusion 4)”, the “apparent KD of MS2 coat protein” value by setting is: (input ligand: FMN 200 uM) 0.0195 µM; (input ligand: none) 0.0187 µM.
For the sequence “UUAGUAUUGCAAGGAUAUGUUUAUGAUAUUUUUCCUCUUACAUGAGGAUCACCCAUGUUUAACUUACAGAAGGUGCUAUGAUUU [JR_ExcNG2_Sub031] (Eterna round: R96, puzzle: Exclusion NG 2)”, under setting [1], the “apparent KD of MS2 coat protein” value amounted to 0.342 µM.
Consider “UGUAAGCUAGGAUAUGCUUUGGGAAAGCAUUCCUUCGAUAAACUUGAGGAUCACCCAAGUAGAAGGAGCUUACU [salish99_ex2_r4_006] (Eterna round: R97, puzzle: Exclusion 2)”, for which the “apparent KD of MS2 coat protein” value runs as follows: (input ligand: FMN 200 uM) 0.0175 µM; (input ligand: none) 0.0115 µM.
In the same order, the values of “GGUGUGAGGCAGGAUAUGCAAUAUGUAAGUAAUGCAGAAGGGUCUACAUGAGGAUCACCCAUGUGUGCGGUAGA [Ex6 #3] (Eterna round: R97, puzzle: Exclusion 6)” are 0.251 µM and 0.14 µM.
Turning to “CAUACUAAAGUCAGGAUAUGCGGUCGAAUACGGGUGUAGAAGGGACAUGAGGAUCACCCAUGUAGAUAGUAAAG [EX-4 Malc #18] (puzzle: Brourd's mod of Exclusion 4)”, the “apparent KD of MS2 coat protein” value is, setting by setting: under setting [2], 0.0931 µM; under setting [3], 0.0902 µM; under setting [4], 0.129 µM.
Turning to “GCCUCACAUGAGGAUCACCCAUGUCAGGAUAUAGGAGACGGUAGCUUUGCUGCCAUCGCUAGAAGGGACUGGCU (puzzle: Exclusion 1)”, the “apparent KD of MS2 coat protein” value under setting [3] is 0.0656 µM.
In the case of “ACACCACAUGAGGAUCACCCAUGUAAGGAUAUAACGCAUCCGCGUAACUGCGGGCAAGUUAGAAGGUGUAUGGG [Eternabot (L2) Solution 91] (Eterna round: R97, puzzle: Exclusion 1)”, the “apparent KD of MS2 coat protein” value runs as follows: (input ligand: FMN 200 uM) 0.0919 µM; (input ligand: none) 0.0496 µM.
Regarding “AAGCUCACACGCUCGUCUUACAUGAGGAUCACCCAUGUCGCCGAGCUUCACAGGCUGAAGCUCAUAUAGGGUCAUGA [Eternabot (L2) Solution 26] (Eterna round: R97, puzzle: Sensor, turn-off variant 1)”, the “apparent KD of MS2 coat protein” value runs as follows: (input ligand: FMN 200 uM) 0.0851 µM; (input ligand: none) 0.0917 µM.
For “AUGUUACUCUGAGGAUAUUGUUUAUUCUUCUCACAUGAGGAUCACCCAUGUUUCCAUGUUAACCGCAAGAAGGCAGUAUUGAUU [JR_ExcNG2_Sub030] (Eterna round: R96, puzzle: Exclusion NG 2)”, the “apparent KD of MS2 coat protein” value (input ligand: FMN 200 uM) is 0.0761 µM, the “apparent KD of MS2 coat protein” value under setting [1] was found to be 0.0491 µM and the “apparent KD of MS2 coat protein” value (input ligand: none) was found to be 0.0551 µM.
On to “AAACGGCAGGGAGGAUAUGCUUACCUGGGUCGUCUUCGAACAUGAGGAUCACCCAUGUAGUCGACGCAGAAGGCCCUCAAAGCC [JL ViennaUCT Ontiis mod 2] (Eterna round: R96, puzzle: Exclusion NG 2)”, for which the “apparent KD of MS2 coat protein” value reads like this: (input ligand: FMN 200 uM) 0.0474 µM; under setting [1], 0.0171 µM; (input ligand: none) 0.0215 µM.
“GAUCAACAUGAGGAUCACCCAUGUGAGGAUAUGAUACUAUGUACUUCGGUACAUAGUAUCAGAAGGCAUGUGGA [Ex1-3: 76] (puzzle: Exclusion 1)”: the “apparent KD of MS2 coat protein” value under setting [3] worked out at 0.162 µM.
As to “UACAUGAGGAUCACCCAUGUUUUGUCGUGUAUGGUAUUUAUCUAGGAUAUCAAAUUAUUUAUUUAUGAGAAGGAGAAUAUUAAU [JMF's solution 9] (Eterna round: R96, puzzle: Exclusion NG 3)”, the “apparent KD of MS2 coat protein” value (input ligand: FMN 200 uM) was determined as 0.0379 µM, the “apparent KD of MS2 coat protein” value under setting [1] is 0.0265 µM and the “apparent KD of MS2 coat protein” value (input ligand: none) was 0.0446 µM.
Turning to “AAUUAUUUUUGAGGAUAUGGUAGUGAAACACUACCAGAAGGCGGAAUAAACAUGAGGAUCACCCAUGUGAGCCUGAUGCUUAUG [Ex NG1 #46] (Eterna round: R96, puzzle: Exclusion NG 1)”, the “apparent KD of MS2 coat protein” value under setting [1] stood at 0.0179 µM.
Regarding “AUAUUAAUAGUAAGGAUAUGCGUAUAUAUAGUUAUGCAGAAGGUACAUGAGGAUCACCCAUGUAUUAAUGUGUA [LRO-BmodExc4-03-Oppy's Opus] (Eterna round: R97, puzzle: Brourd's mod of Exclusion 4)”, the “apparent KD of MS2 coat protein” value by setting is: (input ligand: FMN 200 uM) 0.0149 µM; (input ligand: none) 0.0143 µM.
For “CGGUGUAAGUCAGGAUAUGAGCGCAACUGACGAUCAGAAGGGACACAUGAGGAUCACCCAUGUGAUUUCUCAAUAUUAUACAUC [Prohibition 90 - Jieux - Exclusion NG 1] (Eterna round: R96, puzzle: Exclusion NG 1)”, the “apparent KD of MS2 coat protein” value runs as follows: (input ligand: FMN 200 uM) 0.0307 µM; under setting [1], 0.0144 µM; (input ligand: none) 0.0231 µM.
With “UAUUAUCAAGCAAGAUCCCACAUGAGGAUCACCCAUGUGCUCGUCUUAUUUCUGGCCUUAUUGGUCUCUCGUCUAAU [JR_STOV1_v2_Sub095] (Eterna round: R97, puzzle: Sensor, turn-off variant 1)”, the “apparent KD of MS2 coat protein” value (input ligand: FMN 200 uM) was 0.0258 µM and the “apparent KD of MS2 coat protein” value (input ligand: none) was 0.0267 µM.
Regarding “AUUGAGCUAGGAUAUACAUGAGGAUCACCCAUGUAGCAAAAUAGCUAUACAUGAUCGGGUAGAAGGAGCGCGAG [Tirivela] (puzzle: Exclusion 3)”, the “apparent KD of MS2 coat protein” value under setting [3] turned out to be 0.0143 µM.
Turning to “CCGGAACAUGAGGAUCACCCAUGUCAGGAUAUGAAUAAAUCGUCGAUAGACGAUAAUCUCAGAAGGGACACCGG [Mat - Exclusion 1 - Eli Mod - D27] (Eterna round: R97, puzzle: Exclusion 1)”, the “apparent KD of MS2 coat protein” value reads like this: (input ligand: FMN 200 uM) 0.0245 µM; (input ligand: none) 0.0242 µM.
For “ACCUCACAUGAGGAUCACCCAUGUCAGGAUAUCUAAUAUAGUAGCGUUCCCGACGCUAAGAGAAGGGACAUUAA [EX1 #32] (Eterna round: R97, puzzle: Exclusion 1)”, the “apparent KD of MS2 coat protein” value is, setting by setting: (input ligand: FMN 200 uM) 0.023 µM; (input ligand: none) 0.0139 µM.
Turning to “CACCGUUAGUGAGGAUAUAUUACAUGAGGAUCACCCAUGUAAUAAAUGAGAAUUUCGGAUGUAUGAUAGAAGGCACAAAUCGGC [Ostricism 52 - Jieux - Exclusion NG 2] (Eterna round: R96, puzzle: Exclusion NG 2)”, the “apparent KD of MS2 coat protein” value (input ligand: FMN 200 uM) worked out at 0.0112 µM, the “apparent KD of MS2 coat protein” value under setting [1] was found to be 0.0112 µM and the “apparent KD of MS2 coat protein” value (input ligand: none) was found to be 0.0131 µM.
With “UGAUUGAUUAACAGAUUAUACAUGAGGAUCACCCAUGUAGGUCCUACGUGCCCUUUAUGCAGCUCGUCUUAUUCCCA [Sensor-V1 #70] (Eterna round: R97, puzzle: Sensor, turn-off variant 1)”, the “apparent KD of MS2 coat protein” value worked out at 0.0536 µM (input ligand: FMN 200 uM) and 0.05 µM (input ligand: none).
Regarding “UGCAUGGUAGGAUAUACGGAGCAUUAGGGUUUGUUGUGUGGACAUGAGGAUCACCCAUGUAGAAGGGCCGUGCU [JL-ex2-2.17 mat747 mod] (puzzle: Exclusion 2)”, the “apparent KD of MS2 coat protein” value under setting [3] stood at 0.0355 µM.
On the same count and under the same terms, under “AGUAACAGAGGAUAUACUGUUUUAUGUAUUUAUUAUUUUAAACAUGAGGAUCACCCAUGUAGAAGGCUGAAUGA [JMF 98] (puzzle: Exclusion 2)” stands 0.0224 µM.
Turning to “ACGUGAUACCUGUCGGUGGACAUGAGGAUCACCCAUGUAAGCUUUUUGCUCGUCUUAUAACCCGGUGACAGACCUUC [Racequbebe] (puzzle: Sensor v3, turn-off variant 1)”, the “apparent KD of MS2 coat protein” value came to 0.0977 µM under setting [2], 0.544 µM under setting [3] and 0.142 µM under setting [4].
